According to US20260023068A1, “USE OF A FBXO42 SPECIFIC INHIBITOR IN TREATING NOTCH SIGNALING-DEPENDENT DISEASE” (WESTLAKE UNIVERSITY, priority 2022, published 2026):
One block for each molecule: values may come before it.

How the values were obtained:
CUL1 = target: T1, CUL1 (UniProt Q13616 1-776); experiment: TAP-MS with FBXO42 as the bait in HEK293T cells
T1 construct: also called Cullin-1
Description: TAP purification was performed as described previously (W Bian et al., Low-density-lipoprotein-receptor-related protein 1 mediates Notch pathway activation. Dev Cell 56, 2902-2919 e2908 (2021)). Briefly, 1×10⁸ HEK293T cells stably expressing cSFB-RBPJ or FBXO42 were lysed in 5 ml of NETN buffer (with protease inhibitors) at 4° C. for 30 min followed by TurboNuclease treatment. The lysate was then incubated with streptavidin-conjugated beads (Thermo Fisher Scientific, Waltham, MA) for 2 h at 4° C. After washing with NETN buffer, the bound proteins were eluted with NETN buffer containing 2 mg/mL biotin (Sigma, St. Louis, MO) for 2 h at 4° C. The eluates were then incubated with S-protein beads (EMD Millipore, Burlington, […]) for 4 h. The beads were washed three times with NETN buffer and subjected to SDS-PAGE, followed by Coomassie blue staining. The whole band was excised and subjected to in-gel trypsin digestion and MS analysis.
FBXO42 is a substrate-recognition component of the SKP1-CUL1-F-box protein (SCF)-type E3 ligase complex, which has been previously reported to promote p53 ubiquitination and degradation (L. Sun et al., JFK, a Kelch domain-containing F-box protein, links the SCF complex to p53 regulation. Proc Natl Acad Sci USA 106,10195-10200 (2009)). […]

[1] = target: cSFB-tagged RBPJ (recombination signal-binding protein of immunoglobulin kappa J region with C-terminal SFB tag), Q06330; experiment: biomolecular interaction kinetics with purified proteins; RBPJ at 225 nM loaded on SA probe, FBXO42 at 19.5-625 nM; details: remark: other sources report otherwise
RBPJ = target: T2, RBPJ (Homo sapiens, UniProt Q06330); experiment: Biomolecular interaction analysis with purified recombinant RBPJ and FBXO42 proteins; format: binding; details: in vitro, RBPJ 225 nM on SA probe, FBXO42 19.5 nM-625 nM (FIG. 3I)
T2 construct: SFB (cSFB) (C); made in house; host or cells: 293F cells
Description: (A) Interaction network of FBXO42. Top 50 interactors identified in TAP-MS was shown. (B) KEGG enrichment analysis of preys acquired in FBXO42 tandem-affinity purification (TAP)-MS. The x-axis represents gene ratio=count/set size. The size of the dots represents the number of genes associated with the GO term and the color of the dots represent the adjusted P-values. (C) Circos plot showing overlapping RBPJ and FBXO42 preys. Purple lines link the genes that shared by RBPJ and FBXO42. Blue lines link different genes enriched in the same ontology term. (D and E) HEK293T cell lysates were incubated with IgG control and antibodies against FBXO42 (D) or RBPJ (E). Five percent lysate was used as the input control. Blots with antibodies recognizing RBPJ, FBXO42 and Actin are shown. (F and G) HEK293T cells were cotransfected with Myc-tagged FBXO42 and cSFB-tagged RBPJ, as indicated. The cell lysates were incubated with S beads (F) or an anti-MYC antibody (G). Five percent lysate was used as the input control. Blots with antibodies recognizing the FLAG and MYC epitope tags and Actin are shown. (H) Coomassie blue staining of cSFB-tagged RBPJ and FLAG-FBXO42 proteins purified from 293F cells. (I) Biomolecular interaction kinetics curve showing the binding affinity between purified RBPJ and FBXO42 proteins. The RBPJ was used at 225 nM for binding to SA probe. […]

T2 sequence (Q06330 whole entry): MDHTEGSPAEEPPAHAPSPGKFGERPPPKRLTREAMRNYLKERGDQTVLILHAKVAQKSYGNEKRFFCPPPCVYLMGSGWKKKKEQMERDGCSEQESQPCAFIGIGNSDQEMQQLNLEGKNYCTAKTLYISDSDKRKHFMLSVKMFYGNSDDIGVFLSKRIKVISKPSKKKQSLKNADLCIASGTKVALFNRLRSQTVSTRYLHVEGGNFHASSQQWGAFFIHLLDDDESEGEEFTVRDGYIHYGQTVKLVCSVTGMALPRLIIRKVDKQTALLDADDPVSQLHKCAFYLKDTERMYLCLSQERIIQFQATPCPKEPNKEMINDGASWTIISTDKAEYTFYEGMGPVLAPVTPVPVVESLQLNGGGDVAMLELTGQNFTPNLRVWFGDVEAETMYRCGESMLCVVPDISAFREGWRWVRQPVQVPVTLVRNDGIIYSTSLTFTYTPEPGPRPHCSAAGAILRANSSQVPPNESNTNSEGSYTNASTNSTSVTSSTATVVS
Sequence of cSFB-tagged RBPJ (recombination signal-binding protein of immunoglobulin kappa J region with C-terminal SFB tag), Q06330 (Q06330 whole entry): as above
T1 sequence (Q13616 whole entry): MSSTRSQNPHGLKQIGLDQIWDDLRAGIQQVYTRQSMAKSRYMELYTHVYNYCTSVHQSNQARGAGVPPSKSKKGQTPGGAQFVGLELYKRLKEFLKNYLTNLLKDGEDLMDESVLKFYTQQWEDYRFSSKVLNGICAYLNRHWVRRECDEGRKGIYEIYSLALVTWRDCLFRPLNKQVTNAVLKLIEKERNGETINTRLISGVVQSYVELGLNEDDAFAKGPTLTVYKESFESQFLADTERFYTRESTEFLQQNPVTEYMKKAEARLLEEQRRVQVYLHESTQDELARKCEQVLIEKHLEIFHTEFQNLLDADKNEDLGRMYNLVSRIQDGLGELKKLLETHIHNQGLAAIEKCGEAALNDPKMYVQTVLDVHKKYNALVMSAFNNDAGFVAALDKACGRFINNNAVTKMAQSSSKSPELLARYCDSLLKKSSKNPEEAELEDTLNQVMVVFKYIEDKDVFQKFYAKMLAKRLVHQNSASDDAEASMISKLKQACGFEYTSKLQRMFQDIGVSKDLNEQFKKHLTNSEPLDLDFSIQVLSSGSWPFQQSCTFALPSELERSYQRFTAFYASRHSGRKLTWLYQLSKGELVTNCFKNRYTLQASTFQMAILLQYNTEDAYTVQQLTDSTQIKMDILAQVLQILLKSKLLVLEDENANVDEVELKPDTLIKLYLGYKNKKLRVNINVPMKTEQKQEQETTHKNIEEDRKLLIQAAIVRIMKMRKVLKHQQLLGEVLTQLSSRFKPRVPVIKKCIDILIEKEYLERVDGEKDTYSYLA

- binding result (CUL1): binds
- Kd [1]: 0.047 µM
B1: cSFB-FBXO42 (FBXO42 with C-terminal SFB tag) (other, UniProt Q6P3S6 1-717, looked up)
chain: MASSSDSEDDSFMAVDQEETVLEGTMDQDEEPHPVLEAEETRHNRSMSELPEEVLEYILSFLSPYQEHKTAALVCKQWYRLIKGVAHQCYHGFMKAVQEGNIQWESRTYPYPGTPITQRFSHSACYYDANQSMYVFGGCTQSSCNAAFNDLWRLDLNSKEWIRPLASGSYPSPKAGATLVVYKDLLVLFGGWTRPSPYPLHQPERFFDEIHTYSPSKNWWNCIVTTHGPPPMAGHSSCVIDDKMIVFGGSLGSRQMSNDVWVLDLEQWAWSKPNISGPSPHPRGGQSQIVIDDATILILGGCGGPNALFKDAWLLHMHSGPWAWQPLKVENEEHGAPELWCHPACRVGQCVVVFSQAPSGRAPLSPSLNSRPSPISATPPALVPETREYRSQSPVRSMDEAPCVNGRWGTLRPRAQRQTPSGSREGSLSPARGDGSPILNGGSLSPGTAAVGGSSLDSPVQAISPSTPSAPEGYDLKIGLSLAPRRGSLPDQKDLRLGSIDLNWDLKPASSSNPMDGMDNRTVGGSMRHPPEQTNGVHTPPHVASALAGAVSPGALRRSLEAIKAMSSKGPSASAALSPPLGSSPGSPGSQSLSSGETVPIPRPGPAQGDGHSLPPIARRLGHHPPQSLNVGKPLYQSMNCKPMQMYVLDIKDTKEKGRVKWKVFNSSSVVGPPETSLHTVVQGRGELIIFGGLMDKKQNVKYYPKTNALYFVRAKR
notes: Stably expressed in HEK293T cells as bait for TAP-MS; also called FBXO42 bait; not shown: C-terminal SFB tag

- Kd (RBPJ): 0.047 µM
B2: FBXO42: purified recombinant F-box protein 42, substrate-recognition component of the SCF-type E3 ligase complex (protein)
chain: B1 chain
modifications: left off: small tags and cut ends
notes: purified recombinant F-box protein 42, substrate-recognition component of the SCF-type E3 ligase complex
